± gives the standard deviation of the averaged measurements.
What follows are sequences tested on ATP (assay: switch fluorescence ratio, 500 uM ATP over buffer (Cy3 cluster intensity, sum of 5 cycles each) (fold (ratio)); higher = stronger signal-on switching upon ATP binding; sequences stand for … in TCGTCGGCAGCGTCAGATGTGTATAAGAGACAGTTTTTTTTTTTTTTTTTTTTTTTTT…TC). Details: aptamer strand: ATP DNA aptamer (quencher-CACCTGGGGGAGTATTGCGGAGGAAGG + anchor), 100 nM annealed; ATP concentration: 500 uM.
How it was run: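 Clusters with intensities outside 100-1000 RFU were excluded. The remaining Cy3-labelled switching-strand clusters on a modified Illumina MiSeq flow-cell had been annealed to 100 nM quencher-labelled ATP aptamer and imaged in selection buffer, then after 15 min with 500 uM ATP at 22 °C, for five cycles separated by NaOH stripping and re-annealing. The fluorescence ratio, averaged per switch-domain sequence, is each cluster's summed target-cycle Cy3 intensity over its summed buffer-cycle Cy3 intensity.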
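Further: ATP exposure 15 min at 22 °C before imaging.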

CATGCTGGGG was tested. Which switch fluorescence ratio did it give?
Its switch fluorescence ratio is 0.9941 ± 0.0022.

Which switch fluorescence ratio does the source give for CATGGAAGGC here?
Its switch fluorescence ratio is 0.957 ± 0.03.

With CATGGCCTTA as the sequence, how does the switch fluorescence ratio read?
The switch fluorescence ratio was 0.972 ± 0.0097.

Which switch fluorescence ratio does the source give for CATGGGAGGG here?
Its switch fluorescence ratio is 1.01 ± 0.029.

Which switch fluorescence ratio does the source give for CATGGGAGGT here?
Its switch fluorescence ratio is 0.9711 ± 0.0067.

CATGGGCGGG was tested. Which switch fluorescence ratio did it give?
The switch fluorescence ratio was 0.983 ± 0.022.

Which switch fluorescence ratio does the source give for CATGGGGAGT here?
The switch fluorescence ratio was 0.969 ± 0.024.

Which switch fluorescence ratio does the source give for CATGGGGGGG here?
The switch fluorescence ratio was 0.982 ± 0.043.

For CATGGGGGTG, which switch fluorescence ratio is on record?
Its switch fluorescence ratio is 1 ± 0.021.

Which switch fluorescence ratio does the source give for CATGGGTTAT here?
Its switch fluorescence ratio is 0.981 ± 0.05.

With CATGTAGGCA as the sequence, how does the switch fluorescence ratio read?
The switch fluorescence ratio was 0.99 ± 0.046.

Which switch fluorescence ratio does the source give for CATGTCGACT here?
The switch fluorescence ratio was 0.988 ± 0.046.

With CATGTCGGCA as the sequence, how does the switch fluorescence ratio read?
Its switch fluorescence ratio is 1 ± 0.019.

CATGTGACCA was tested. Which switch fluorescence ratio did it give?
The switch fluorescence ratio was 0.988 ± 0.038.

Which switch fluorescence ratio does the source give for CATGTGATGG here?
The switch fluorescence ratio was 1.06 ± 0.044.

For CATGTGATTT, which switch fluorescence ratio is on record?
Its switch fluorescence ratio is 0.992 ± 0.023.

For CATGTGGGGA, which switch fluorescence ratio is on record?
Its switch fluorescence ratio is 1.021 ± 0.004.

How did the switch fluorescence ratio turn out when CATGTGGGTA was run?
The switch fluorescence ratio was 0.981 ± 0.053.

CATGTGGTGG was tested. Which switch fluorescence ratio did it give?
Its switch fluorescence ratio is 0.998 ± 0.039.

Which switch fluorescence ratio does the source give for CATGTGTTTT here?
Its switch fluorescence ratio is 0.9744 ± 0.0041.

For CATGTTGGAT, which switch fluorescence ratio is on record?
Its switch fluorescence ratio is 0.964 ± 0.029.

Which switch fluorescence ratio does the source give for CATGTTTCTA here?
Its switch fluorescence ratio is 0.995 ± 0.02.

How did the switch fluorescence ratio turn out when CATTAAAATT was run?
The switch fluorescence ratio was 0.994 ± 0.028.

With CATTAACAGG as the sequence, how does the switch fluorescence ratio read?
The switch fluorescence ratio was 1.03 ± 0.021.

CATTAAGGCT was tested. Which switch fluorescence ratio did it give?
Its switch fluorescence ratio is 1.01 ± 0.071.

With CATTAGATGC as the sequence, how does the switch fluorescence ratio read?
Its switch fluorescence ratio is 1.06 ± 0.056.

How did the switch fluorescence ratio turn out when CATTAGCGAT was run?
The switch fluorescence ratio was 1.5 ± 0.091.

Which switch fluorescence ratio does the source give for CATTAGGGGG here?
The switch fluorescence ratio was 1.04 ± 0.037.

For CATTAGTCTC, which switch fluorescence ratio is on record?
Its switch fluorescence ratio is 1.02 ± 0.053.

CATTAGTTGG was tested. Which switch fluorescence ratio did it give?
Its switch fluorescence ratio is 1.006 ± 0.0052.

Which switch fluorescence ratio does the source give for CATTATCTGG here?
Its switch fluorescence ratio is 1.01 ± 0.072.

CATTATGCGG was tested. Which switch fluorescence ratio did it give?
Its switch fluorescence ratio is 1 ± 0.025.

How did the switch fluorescence ratio turn out when CATTATTGGC was run?
The switch fluorescence ratio was 1.06 ± 0.025.

With CATTCATGAT as the sequence, how does the switch fluorescence ratio read?
Its switch fluorescence ratio is 0.9858 ± 0.0086.

For CATTCGCTGA, which switch fluorescence ratio is on record?
The switch fluorescence ratio was 1.92 ± 0.19.

How did the switch fluorescence ratio turn out when CATTCTTTTT was run?
Its switch fluorescence ratio is 1.02 ± 0.049.

How did the switch fluorescence ratio turn out when CATTGACATA was run?
The switch fluorescence ratio was 1.07 ± 0.034.

Which switch fluorescence ratio does the source give for CATTGAGTTG here?
The switch fluorescence ratio was 0.973 ± 0.018.

Which switch fluorescence ratio does the source give for CATTGCAGAT here?
Its switch fluorescence ratio is 0.981 ± 0.037.

CATTGCAGTT was tested. Which switch fluorescence ratio did it give?
Its switch fluorescence ratio is 1.01 ± 0.026.

Which switch fluorescence ratio does the source give for CATTGCCCGT here?
Its switch fluorescence ratio is 0.989 ± 0.017.

Which switch fluorescence ratio does the source give for CATTGCGATT here?
The switch fluorescence ratio was 1.13 ± 0.14.

How did the switch fluorescence ratio turn out when CATTGGGAGA was run?
Its switch fluorescence ratio is 0.984 ± 0.011.

How did the switch fluorescence ratio turn out when CATTGGGGCG was run?
Its switch fluorescence ratio is 0.926 ± 0.019.

For CATTGGTCGC, which switch fluorescence ratio is on record?
Its switch fluorescence ratio is 0.997 ± 0.035.

For CATTGGTGGC, which switch fluorescence ratio is on record?
The switch fluorescence ratio was 0.992 ± 0.1.

Which switch fluorescence ratio does the source give for CATTGGTGGG here?
The switch fluorescence ratio was 0.977 ± 0.028.

How did the switch fluorescence ratio turn out when CATTGTTAGG was run?
Its switch fluorescence ratio is 1.01 ± 0.004.

For CATTTAATTC, which switch fluorescence ratio is on record?
The switch fluorescence ratio was 1.04 ± 0.014.

CATTTAGGGA was tested. Which switch fluorescence ratio did it give?
Its switch fluorescence ratio is 1.01 ± 0.029.

For CATTTATAAA, which switch fluorescence ratio is on record?
The switch fluorescence ratio was 0.992 ± 0.011.

How did the switch fluorescence ratio turn out when CATTTATTAG was run?
The switch fluorescence ratio was 0.964 ± 0.0063.

With CATTTCAGGA as the sequence, how does the switch fluorescence ratio read?
Its switch fluorescence ratio is 1.004 ± 0.0027.

For CATTTCTAGA, which switch fluorescence ratio is on record?
Its switch fluorescence ratio is 0.9709 ± 0.0055.

With CATTTGGGTC as the sequence, how does the switch fluorescence ratio read?
The switch fluorescence ratio was 1.013 ± 0.0038.

CATTTGGGTT was tested. Which switch fluorescence ratio did it give?
Its switch fluorescence ratio is 1.03 ± 0.059.

For CATTTGTATT, which switch fluorescence ratio is on record?
Its switch fluorescence ratio is 1.01 ± 0.038.

For CATTTGTTAG, which switch fluorescence ratio is on record?
The switch fluorescence ratio was 0.9657 ± 0.0071.

Which switch fluorescence ratio does the source give for CATTTTACTT here?
The switch fluorescence ratio was 1.02 ± 0.035.

With CATTTTAGGG as the sequence, how does the switch fluorescence ratio read?
The switch fluorescence ratio was 0.988 ± 0.027.

How did the switch fluorescence ratio turn out when CATTTTGCGC was run?
Its switch fluorescence ratio is 1.04 ± 0.042.

With CATTTTGGTT as the sequence, how does the switch fluorescence ratio read?
The switch fluorescence ratio was 0.995 ± 0.036.

CATTTTTACG was tested. Which switch fluorescence ratio did it give?
The switch fluorescence ratio was 1.01 ± 0.026.

How did the switch fluorescence ratio turn out when CCAAAAGTGG was run?
Its switch fluorescence ratio is 1.04 ± 0.044.

For CCAAAATTG, which switch fluorescence ratio is on record?
The switch fluorescence ratio was 1.02 ± 0.018.

CCAAATCGGA was tested. Which switch fluorescence ratio did it give?
The switch fluorescence ratio was 1 ± 0.022.

For CCAAATGCGA, which switch fluorescence ratio is on record?
The switch fluorescence ratio was 1.97 ± 0.068.

CCAAATGTCG was tested. Which switch fluorescence ratio did it give?
The switch fluorescence ratio was 0.982 ± 0.025.

For CCAACAGGCC, which switch fluorescence ratio is on record?
Its switch fluorescence ratio is 1.14 ± 0.12.

CCAACTTTTT was tested. Which switch fluorescence ratio did it give?
Its switch fluorescence ratio is 0.962 ± 0.014.

Which switch fluorescence ratio does the source give for CCAAGAGGGC here?
The switch fluorescence ratio was 1.04 ± 0.023.

For CCAAGTTCGG, which switch fluorescence ratio is on record?
The switch fluorescence ratio was 1.02 ± 0.011.

With CCAATGAGTG as the sequence, how does the switch fluorescence ratio read?
Its switch fluorescence ratio is 1.01 ± 0.023.

For CCAATGCTGT, which switch fluorescence ratio is on record?
The switch fluorescence ratio was 1.115 ± 0.0091.

With CCAATGGAGG as the sequence, how does the switch fluorescence ratio read?
Its switch fluorescence ratio is 0.994 ± 0.034.

With CCAATGGGAA as the sequence, how does the switch fluorescence ratio read?
The switch fluorescence ratio was 1.01 ± 0.025.

How did the switch fluorescence ratio turn out when CCACAGCCGG was run?
The switch fluorescence ratio was 1.23 ± 0.13.

Which switch fluorescence ratio does the source give for CCACATTGCT here?
The switch fluorescence ratio was 1.21 ± 0.017.

Which switch fluorescence ratio does the source give for CCACATTGTA here?
Its switch fluorescence ratio is 1.01 ± 0.018.

Which switch fluorescence ratio does the source give for CCACGATTAC here?
The switch fluorescence ratio was 3.44 ± 1.3.

How did the switch fluorescence ratio turn out when CCACGGGATG was run?
Its switch fluorescence ratio is 1.09 ± 0.03.

Which switch fluorescence ratio does the source give for CCACGTCAAC here?
The switch fluorescence ratio was 1.59 ± 0.052.

CCACGTGGGC was tested. Which switch fluorescence ratio did it give?
Its switch fluorescence ratio is 1.07 ± 0.14.

CCACTGGTGT was tested. Which switch fluorescence ratio did it give?
The switch fluorescence ratio was 3.92 ± 0.56.

How did the switch fluorescence ratio turn out when CCACTTACGG was run?
The switch fluorescence ratio was 1.6327 ± 0.00046.

With CCACTTAGGG as the sequence, how does the switch fluorescence ratio read?
Its switch fluorescence ratio is 1.01 ± 0.021.

CCACTTGCTA was tested. Which switch fluorescence ratio did it give?
Its switch fluorescence ratio is 1.16 ± 0.037.

CCAGAACCGG was tested. Which switch fluorescence ratio did it give?
Its switch fluorescence ratio is 1.01 ± 0.0022.

With CCAGAAGGGG as the sequence, how does the switch fluorescence ratio read?
The switch fluorescence ratio was 1.52 ± 0.89.

CCAGACGGGG was tested. Which switch fluorescence ratio did it give?
Its switch fluorescence ratio is 0.986 ± 0.029.

How did the switch fluorescence ratio turn out when CCAGAGGAGG was run?
Its switch fluorescence ratio is 1.01 ± 0.076.

How did the switch fluorescence ratio turn out when CCAGATATGG was run?
The switch fluorescence ratio was 1.01 ± 0.041.

How did the switch fluorescence ratio turn out when CCAGATTGGG was run?
The switch fluorescence ratio was 1.004 ± 0.0052.

For CCAGCAAGAT, which switch fluorescence ratio is on record?
The switch fluorescence ratio was 4.63 ± 0.51.

CCAGCAGCGG was tested. Which switch fluorescence ratio did it give?
The switch fluorescence ratio was 1.12 ± 0.063.

With CCAGCGAATG as the sequence, how does the switch fluorescence ratio read?
The switch fluorescence ratio was 1.05 ± 0.028.

How did the switch fluorescence ratio turn out when CCAGCGTGGT was run?
The switch fluorescence ratio was 1.1 ± 0.019.

How did the switch fluorescence ratio turn out when CCAGCTGGCT was run?
The switch fluorescence ratio was 1.026 ± 0.0063.

For CCAGCTTTGC, which switch fluorescence ratio is on record?
The switch fluorescence ratio was 1.02 ± 0.057.

How did the switch fluorescence ratio turn out when CCAGGAGGGA was run?
The switch fluorescence ratio was 1.002 ± 0.0041.

From the supplement of paper PMC10126150
